experiment: yeast display, Sf9 membrane polyspecificity reagent, FACS + sequencing; frameworks hold sequencing errors
In short: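 Genes from sorted yeast were amplified by colony PCR, read by MiSeq 2 × 250 sequencing and filtered on CDR length. These cells carried a synthetic nanobody library in Saccharomyces cerevisiae BJ5465 and were sorted by FACS into low and high (top ~1%) gates on anti-HA and streptavidin fluorescence. Polyreactivity is labelled according to the gate of origin.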

Sequence | polyreactivity (PSR sort gate)
QVQLVESGGGLVQAGGSLRLSCAASGSTFAAYAMGWYRPAPGTERELVAAISASGGSTYYADSVKGRFTISRDNEKNTVYLQMNSLKPEDTAVYYCAARVFRGLGEYYWGQGTQVTVSS | high polyreactivity
QVQLVESGGGLVQAGGSLRLSCAASGSTLYYNAMGWYRQAPGKERELVAAISWSGGSTYYADSVKGRFTISRDNAKNTVYLQMNSLKPEDTAVYYCAADQSTVLDVGSWGQGTQVTVSS | low polyreactivity
QVQLVESGRGIVQAGGSLRLSCAASGRIFRVNAMGWYRQAPGKERELVATISYSGGSTYADSVKGRFTISRDNAKNTVYLQMNSLKPEDTAVYYCAARPYYRYYRYPYGYWGQGTQVTVSS | high polyreactivity
QVQLVESGGGLVQAGGSLRLSCAASGIIFSGYAMGWYRQAPGKERELVASIRSGSNTYYADSVKGRFTISRDNAKNTVYLQMNSLKPEDTAVYYCAARVVPATFRFIRYPHPYYYWGQGTQVTVSS | low polyreactivity
QVQLVESGGGLVQAGGSLRLSCAASGRTFWRNAMGWYRPAPGKERELVAVISVRGSSTSYADSVKGRFTISRDNAKNNVYFQMNILKPEDTGVYYCAAGRRYRSVGYGYWGQGTQLTVSS | high polyreactivity
QLHLVESAGGLVQAGGSLRLSCVYSGLTQPYAMGWYRHAPGKEREWVAGITCRGASTYYADSVKGRFTISRDNAKNTVYLQLNSLKPEDTAVYYCAARSTIQRRGYYGYRVGLSEYGYWGQGTQVTVSS | low polyreactivity
QVQLVESGGGLVQAGGSLRLSCADSGSIGYYAMGWYRQAPGKERELVAVISRSGTGTYYADSVKGRFTISRDNANNTVYLQMNSLKPEDTAVYYCNAETYTYRYENDYWGQGTQVTVSS | high polyreactivity
QVQLVESGGGLVQAGGSLRLSCAASGRIINYYAMGWYRPAPGKERELVAGISWSGGSTSYADSVKGRFTISRDNAKNTVYLQMNSLKPEDTAVYYCAAGVFKAFYYWGQGTQVTVSS | low polyreactivity
QVQLVESGGGLVQAGGSLRLSCAASGRTFAYNTMGWYRQAPGKERELVARINSGTSTYYADSVKGRFTISRDNAKNTVYLEMNSLKPEDTAVYYCAARGSDYIRWYVGGRYGYWGQGSQVTVSS | low polyreactivity
QVQLVESGGGLVQAGGSLRLSCAASGSIFVTYAMGWYRQAPGKERELVARITSGGSTYYADSVKGRFTISRDNAKNTVYLQMNSLKPEDTAVYYCAARRWLRYDLDYGGQGTQVTVSS | low polyreactivity
QVQLVASGGGLVQAGGSLRLSCAASGSTFYYNAMGWSRQAPGKERELVAVISTSDGSTNYADSVKRRFTISSDNAKNTVYLQMISLKPEDTAVYYCAADYSESRRFDYWGQGTQVTVSS | low polyreactivity
QVQLVESGGGLVQAAGSLRLSCAASGRTFYRNAMGWYRQAPGKERELVAAISQSGGSTYYADSVKGRFTISRDNAKNTVYLQMNSLKPEDTAVYYWAAGNSRRVGMDYWGQGTQVTVSS | high polyreactivity
QVQHVESGGGLVQAGGSLRLSCAASGRIFHYNAMGWYRQAPGKERELVAAITWIGGSTYADSVKGRFTISRDNAKNTVYLQMNSLKPEDTAVYYCNARYIYRFDYWGQGTQVTVSS | low polyreactivity
QVQLVESGGGLVQAGGSLRLSCAASGSTFYYYAMGWYRQAPGKERELVAAITYSGGGTYYADSVKGRFTISRDNAKNTFYLQMNSLKPEDTAVYYCAKTIAVNTWYYYWGQGTQVTVSS | low polyreactivity
QVQLVESGGGLVQAGGSLRLSCAASGSTFSYYAMGWYRQAPGKERELVAAITSGGRTKYADSVKGRFTISRDNAKNTVYLQMNSLKPEDTAVYYCAKRIEKFSGSLAGRWYDYWGQGTQVTVSS | high polyreactivity
QVQLVESGGGLVQAGGSLRLICAASGFTFYYYAMGWYRQAPGKEWELVAAISRNGVSTYYADSVKGRFTISRDNAKNTVYLQMNSLKPEDTAVYYCASGYGSLHVNYLGQGTQVTVSS | low polyreactivity
QVQLVESGGGLVQAGGSLRLSCAASRLTFQQYAMGWYRQAPGKERELVAAITSDGASTNYADSVKGRFTISRDYAKNTVYLQMNSLKPEDTAVYYCAARRRSRQYRYDYWGQGTQVTVSS | high polyreactivity
QVQLVESGGGIVQAGGSLRLSCAASGSIFVHNDLGWYRQAPGKERELVARINTGGGTNYADSVKGRFTISRDNAKKTVYLQMNSLKPEDTAVYYCATDGDRDDHYFTDPEFDYWGQGTQVTVSS | low polyreactivity
QVQLVESGGSLVQAGGSLRLSSAASGITFSDYAMRWYRPAPGKESELVAGITSGGSTYYADSVKGRFTISRDNAKNTVYLQMNSLKPEDSAVYYCAAVRRWKYDWGQGTQVTVSS | high polyreactivity
QVQHVESGGGLVQAGGSLRLSCAASGSTFYRYAMGWYRQAPGNERELVAAISASGGSTYYADSVKGRFTISRDNAKNTVYLQMNSLKPEDTAVYYCNRDRRYRNDYWGQGTQVTVSS | high polyreactivity
QVQLVESGGGLVQAGGSLRLSCAASGSTLRRYAMGWDRQAPGKERELVAAISGSGDSTYYADSVKGRFTISRDNAKNTVYLQMNSLKPEDTAVYYCNAVYAFNGYDYWGQGTQVTVSS | low polyreactivity
QVQLVESGGGLVQAGGSLRLSCAASGFTFDIYAMGWYRQAPGKERELVADITSGGSTDYADSVKGRFTISRDNAKNTVYLQMNSLKPEDTAVFYCNAAVFYEPEWQYDYWGQGTQVTVSS | low polyreactivity

Sequence | polyreactivity (PSR sort gate)
QVQLVESGGSLVQAGGSLRLSCAASGFIFQDNAMGWYRQAPGKERELVAAIRSTGSTNYADSVKGRFTISRDNAKNTVYLQMNSLKPEDTAVYYCNAGKYQSDTPSLVPTEYPAFYYWGQGTQVTVSS | low polyreactivity
QVQLVESGGGLVQAGGRLRLSCAASGRTFYSNAMGWYSQAPGKERELVAAITFGGGSTYYADSVKGRFTISRDNAKNTVYLQMNSLKPEDTAVYYCAAEGYKYRFYYWGQGTQVTVSS | low polyreactivity
QVQIVESGGGLVQAGGSLRLTCAASGSIFGYYAMGWYRQAPGKERELVAAITTGGSTSYADSVKGRFTISRDNAKKTVYLQMNSLKPEDTAVYYCNARFKLLFGRADDYWGQGTQVTVSS | low polyreactivity
QVQLVESGGGLVQAGGSLRLSCAASGSTFWWNTRGWYRQAPGKERELVADIRTSGGGTYYADSVKGRFTISLDNAKNTFYLQMNSLKPEDTAVYYCNADPKWEMGSWGQGTQVTVSS | low polyreactivity
QVQLVESGGGLVQAGGSLRLSCAASAIIFYTYAMGWYRQAPGKERELVAAISSGGRTTYADSVKGRFTISRDNAKTTVYFQMNSLKPEDTAVYYCAARLFRSRHAASPFIRSIYGYWGQGTQVTVSS | high polyreactivity
QVQLVESGGGLVQAGGSLRLSCAASGSIFYPYAMGWYRQAPGKERELVAAITWSGGDTYYADSVKGRFTISRDKAKYTDYLQMNSLKPEDTAVYYSAAEWNVSPYDYWGQGTQVTVSS | low polyreactivity
QVQLVESGGGLVQAGGSLRLSCAASGRTFKGNAMGWYRQAPGKERKLVAVITGSGGSTYYADSVKGRFTISRDNAKNTVYLQMNSLKPEDTAVYYCAAESEPIRIRERDYWGQGTHVTVSS | low polyreactivity
QVQLVESGGGLVQAGGSLRLSCAASGSIYRYAMGWYRQAPGKERELVAAINFNGGRTYYADSVKGRFTISRDNAKNTVYIQMNSLKPEDTAVYYCAAVRSSNQGGFDYWGQGTQVTVSS | high polyreactivity
QVQLVESGGGLVQAGGSLRLSCAASGRIFFYNVMGWYRQAHGKERELVAAITTIGGSTYYADSVKGRFTISRDNAMNTVYLQMNSLKPEDTAVYYCAAGWVTNSDGMDYWGQGTQVTVSS | low polyreactivity
QVQLVESGGVLVQAGGSLRLSCAASGFIFKKYAMGWYRQEPGKEMELVAAITIGGSTYYADSVKGRFTISRDNAKNTVYLQMNSLKPEDTAVYYCAAVQGKVRGGYYWGQGTQVTVSS | high polyreactivity
QVQLVESGGGIVQAGGSLRLSCAASGRTLGGYAMGWYRQAPGKERELVAAITRRGGSTYYADSVKGRFTISRDNAKNTVYLQMNSLKPEDTAVYYCAARWYARSLTRFNYWGQGTQVTVSS | high polyreactivity
QVQLVESGGGLVQAGGSLRLSCAATGFTFEYYAMGWYRKAPGKERELVAAITSGGSTNYADSVKVRFTISRDNAKNTVSLQKNSLKPEDTAVYYCATSGNNYYYALYGYWGQGTQVTVSS | low polyreactivity
QVQLEESGGGLVQAGGSLRLSCAASGRSFWPNAMGWYRQAPGKERELVAAISSGGSTNYADSVKVRFTISRDNAKNTVYLQMNSLKPEDTAVYYCASDGQGDKYDYYGHNFWGQGTQVTVSS | low polyreactivity
QVQLVESGGGLVQAGGSLRLSCAASGSTIYAYAMGWYRQAPGKERELVAAIDSGGSTYYADSVKGRFTISRDNAKNTVYLQMNSLKPEDTAVYYCAVRHRYTRAYWGRDYWGQGTQVTVSS | low polyreactivity
QVQLVESGGGLVQAGGSLRLSCAASGSTFWGYGMGWYRQAPGKERELVATINQSAGSTYYADSVKGRFTISRDNAKNTVYLQLNSLNPEDPAAYYCATDLIQGAAPFRYDYWGQGTQVTVSS | low polyreactivity
QVQLVESGGGLVQAGGSLRLSCAASGRIFWYYAMGWYRQAPGKERELVASIRWGGGNTYYADSVKGRFTISRDNAKNTVYLQMNSLKPEDTAVYYCAKSKVSPSGDFYYWGQGTQVTVSS | high polyreactivity
QVQHVESGGGLVQAGGSLRLTCAASGRTFGVYAMGWYRQAPGKEREFVAVISWSDDSTYYADSVKGRFTISRDYAKNTVNLQMNSLKPEDTAVYYCNADDYLVYSGSHYGYWGQGTQVTVSS | low polyreactivity
QVQLVESGGGLVQAGGSLRLSCAASGSTFYGYTMGWYRQAPGKERELVAAISSSGSSTYYADSVKGRFTISRDNAKNTVYLQMNSLKPVDTAVYYCAAATRVPGHGSTSYYYWGQGTQVTVSS | high polyreactivity
QVQHVESGGCLVQAGGILRLSCAASGSIFQSNTMGWYRQAPGKVRELVAYISNGGTTTYANSVKGRFTISRDNAKTTVYLQMNSLKPEDTAVYYCATYYWQYYEYDYWGQGTQVTVSS | low polyreactivity
QVQLVESGGGLVQAGGSLRISCAASGSTFTTYAMGWYRQAPGKERELVARIRSSGGITYYADSVKGRFTISRDNAKNTVYLQMNSLKPEDTAVYYCAARGQFYNTRVGYWGQGTQVTVSS | high polyreactivity
QVQLVESGGGLVQAGGSLRLSCAASGRTFYDNAMRWYRQAPGKERELDAAITNGGRTNYADSVKGRFTISRDNAKNTVYLQMNSLKPEDTAVYYCAADFWPWYRYYSGGVDYWGQGTQVTVSS | high polyreactivity

— the nanobody polyreactivity screen of Harvey et al. (2022)
